This assay addresses γ-secretase complex (presenilin-1, nicastrin, Aph-1, Pen-2) (UniProt Q92542 34-709; Q96BI3 1-265; Q9NZ42 1-101). The assay is described as follows: enzyme inhibition kinetics.

Square brackets hold non-standard residues; d marks the D form. * marks the point of attachment. Boc = CC(C)(C)OC(=O)*; Aib = CC(C)(N)C(=O)O

Drawing on paper PMC8918029 (Journal of medicinal chemistry, 2021), this text covers Ki for one molecule.

Boc-VG[Aib]VVI[Aib]FV[Aib]GGGVFFLV-NH2 (also: hydroxyethylurea isostere (ψ) between the two Phe (15-16)) [HPI-TSA conjugate 28] returned a Ki of 1.19 ± 0.1 nM.

The term Ki denotes a dissociation constant, usually derived from enzyme kinetics or from competition with a known ligand. High values mean weaker binding, low ones tighter binding.
